Results published in patent US20140274782A1, “AFFINITY REAGENTS AND METHODS FOR DETECTION, PURIFICATION, AND PROTEOMIC ANALYSIS OF METHYLATED PROTEINS” (The Board of Trustees of the Leland Stanford Junior …, priority 2013, published 2014).
One block for each molecule: values may come before it.

Columns and labels:
G9a and GLP = target: T1, G9a and GLP (Homo sapiens, UniProt Q96KQ7+Q9H9B1); assay: Triple SILAC pull-down after UNC0638 treatment of 293T cells, DMSO/UNC0638 ratio of protein captured by 3×MBT; type: cell-based; design: cells were treated for 24 hours with UNC0638 at 2.5 μM or DMSO vehicle control; endogenous in cells; host or cells: HEK 293T; conditions: all values in log base 2; for Relative to UNC0638 UNC Heavy / Relative to UNC0638 UNC Light: SILAC ratio DMSO relative to UNC0638, pull-down with 3xMBT; for Relative to UNC0638 UNC Heavy: UNC0638 in heavy SILAC media; for Relative to UNC0638 UNC Light: UNC0638 in light SILAC media; for Relative to UNC0638 Average: average of UNC Light and UNC Heavy experiments;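 as to all read-outs here: mass spectrometry (Q-Exactive) SILAC quantitation, DMSO/UNC0638 ratio computed after subtracting 3×MBTD355N mutant pull-down background, only proteins with at least twofold 3×MBT over mutant signal considered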
T1 sequence (Q96KQ7 2-1210 limits assumed): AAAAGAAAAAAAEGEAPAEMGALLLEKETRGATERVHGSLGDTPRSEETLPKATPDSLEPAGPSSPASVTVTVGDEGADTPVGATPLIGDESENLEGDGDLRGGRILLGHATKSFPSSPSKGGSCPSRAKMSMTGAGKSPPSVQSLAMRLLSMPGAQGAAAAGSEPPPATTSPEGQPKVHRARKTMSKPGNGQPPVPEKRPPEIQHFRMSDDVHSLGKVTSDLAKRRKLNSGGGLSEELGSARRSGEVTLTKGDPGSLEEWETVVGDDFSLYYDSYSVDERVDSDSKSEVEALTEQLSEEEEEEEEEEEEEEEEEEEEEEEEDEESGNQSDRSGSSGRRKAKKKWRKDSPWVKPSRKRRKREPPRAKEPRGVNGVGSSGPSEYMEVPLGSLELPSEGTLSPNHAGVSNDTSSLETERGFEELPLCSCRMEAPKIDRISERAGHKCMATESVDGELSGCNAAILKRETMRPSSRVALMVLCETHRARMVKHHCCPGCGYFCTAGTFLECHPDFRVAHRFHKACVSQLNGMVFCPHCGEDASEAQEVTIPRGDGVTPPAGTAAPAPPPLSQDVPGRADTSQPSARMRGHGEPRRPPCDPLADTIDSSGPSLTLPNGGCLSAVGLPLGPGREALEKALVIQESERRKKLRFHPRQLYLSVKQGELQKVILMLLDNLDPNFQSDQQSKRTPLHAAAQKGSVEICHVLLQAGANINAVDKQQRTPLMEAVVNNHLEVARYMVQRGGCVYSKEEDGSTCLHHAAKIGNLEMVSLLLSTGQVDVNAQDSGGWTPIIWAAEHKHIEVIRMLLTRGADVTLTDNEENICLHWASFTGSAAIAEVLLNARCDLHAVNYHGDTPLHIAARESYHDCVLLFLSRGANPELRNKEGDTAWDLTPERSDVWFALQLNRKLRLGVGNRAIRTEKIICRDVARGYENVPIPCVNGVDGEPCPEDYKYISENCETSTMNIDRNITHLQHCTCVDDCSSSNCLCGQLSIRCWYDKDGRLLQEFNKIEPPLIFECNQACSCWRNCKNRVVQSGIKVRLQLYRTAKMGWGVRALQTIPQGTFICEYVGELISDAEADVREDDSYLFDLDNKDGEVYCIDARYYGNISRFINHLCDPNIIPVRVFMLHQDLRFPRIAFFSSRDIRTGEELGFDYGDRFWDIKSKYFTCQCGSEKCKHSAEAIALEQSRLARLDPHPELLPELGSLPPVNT
T1 sequence (Q9H9B1 2-1298 limits assumed): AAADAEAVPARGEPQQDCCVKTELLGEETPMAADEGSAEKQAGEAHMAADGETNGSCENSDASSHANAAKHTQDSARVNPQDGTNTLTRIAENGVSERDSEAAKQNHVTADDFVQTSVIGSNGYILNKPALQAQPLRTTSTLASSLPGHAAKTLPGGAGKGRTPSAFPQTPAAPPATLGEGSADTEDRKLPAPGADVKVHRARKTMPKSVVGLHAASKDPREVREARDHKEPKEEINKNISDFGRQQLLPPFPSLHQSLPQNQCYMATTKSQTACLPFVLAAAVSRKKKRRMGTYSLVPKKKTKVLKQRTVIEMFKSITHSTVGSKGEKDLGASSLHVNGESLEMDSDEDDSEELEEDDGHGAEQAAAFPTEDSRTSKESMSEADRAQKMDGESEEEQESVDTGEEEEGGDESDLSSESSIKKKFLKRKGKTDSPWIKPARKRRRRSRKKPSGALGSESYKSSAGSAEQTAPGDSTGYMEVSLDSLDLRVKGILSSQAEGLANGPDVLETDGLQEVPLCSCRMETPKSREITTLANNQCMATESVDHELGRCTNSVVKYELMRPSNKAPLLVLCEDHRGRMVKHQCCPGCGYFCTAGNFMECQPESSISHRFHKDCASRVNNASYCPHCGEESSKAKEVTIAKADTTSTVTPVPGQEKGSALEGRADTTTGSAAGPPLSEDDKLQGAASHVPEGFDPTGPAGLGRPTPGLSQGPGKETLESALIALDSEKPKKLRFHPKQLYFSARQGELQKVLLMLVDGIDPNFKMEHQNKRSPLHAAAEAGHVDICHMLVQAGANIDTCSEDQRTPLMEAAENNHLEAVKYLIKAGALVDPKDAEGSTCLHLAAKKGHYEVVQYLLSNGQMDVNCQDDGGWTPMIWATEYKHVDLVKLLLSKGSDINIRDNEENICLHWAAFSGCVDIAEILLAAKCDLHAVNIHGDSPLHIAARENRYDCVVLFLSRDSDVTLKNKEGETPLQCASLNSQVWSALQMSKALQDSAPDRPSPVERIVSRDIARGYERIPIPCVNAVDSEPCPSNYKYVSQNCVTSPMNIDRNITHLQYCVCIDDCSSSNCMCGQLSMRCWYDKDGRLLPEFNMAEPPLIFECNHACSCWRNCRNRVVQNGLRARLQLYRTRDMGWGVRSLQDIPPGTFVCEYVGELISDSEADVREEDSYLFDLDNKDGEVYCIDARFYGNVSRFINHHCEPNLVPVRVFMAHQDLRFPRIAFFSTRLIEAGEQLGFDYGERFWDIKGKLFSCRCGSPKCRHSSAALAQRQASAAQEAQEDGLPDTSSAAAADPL

3×MBT domain of L3MBTL1 = assay: Triple SILAC pull-down, 3xMBT/3xMBTD355N ratio (cytoplasmic, nuclear and chromatin fractions of 293T cells); type: binding, human; conditions: SILAC ratio 3xMBT vs 3xMBTD355N pull-down, 293T cells, all values in log base 2; for 3xMBT/D355N UNC Heavy: experiment with UNC0638 in heavy SILAC media; for 3xMBT/D355N UNC Light: experiment with UNC0638 in light SILAC media;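 as to all read-outs here: proteins quantified with MaxQuant, requiring at least two unique peptides and quantification in both label directions, normalized to the mean of proteins from a digested loading control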

- Relative to UNC0638 UNC Heavy (G9a and GLP): 0.13 log base 2
- Relative to UNC0638 UNC Light (G9a and GLP): 0.03 log base 2
- Relative to UNC0638 Average (G9a and GLP): 0.08 log base 2
B1: NPM3 (protein, UniProt O75607 2-178, looked up)
Nucleoplasmin-3: AAGTAAALAFLSQESRTRAGGVGGLRVPAPVTMDSFFFGCELSGHTRSFTFKVEEEDDAEHVLALTMLCLTEGAKDECNVVEVVARNHDHQEIAVPVANLKLSCQPMLSLDDFQLQPPVTFRLKSGSGPVRITGRHQIVTMSNDVSEEESEEEEEDSDEEEVELCPILPAKKQGGRP
- 3xMBT/D355N UNC Heavy (3×MBT domain of L3MBTL1): 2.70 log base 2
- 3xMBT/D355N UNC Light (3×MBT domain of L3MBTL1): 2.15 log base 2

- Relative to UNC0638 UNC Heavy (G9a and GLP): 0.02 log base 2
- Relative to UNC0638 UNC Light (G9a and GLP): 0.15 log base 2
- Relative to UNC0638 Average (G9a and GLP): 0.08 log base 2
B2: SRRT (protein, UniProt Q9BXP5 2-876, looked up)
Serrate RNA effector molecule …: GDSDDEYDRRRRDKFRRERSDYDRSRERDERRRGDDWNDREWDRGRERRSRGEYRDYDRNRRERFSPPRHELSPPQKRMRRDWDEHSSDPYHSGYEMPYAGGGGGPTYGPPQPWGHPDVHIMQHHVLPIQARLGSIAEIDLGVPPPVMKTFKEFLLSLDDSVDETEAVKRYNDYKLDFRRQQMQDFFLAHKDEEWFRSKYHPDEVGKRRQEARGALQNRLRVFLSLMETGWFDNLLLDIDKADAIVKMLDAAVIKMEGGTENDLRILEQEEEEEQAGKPGEPSKKEEGRAGAGLGDGERKTNDKDEKKEDGKQAENDSSNDDKTKKSEGDGDKEEKKEDSEKEAKKSSKKRNRKHSGDDSFDEGSVSESESESESGQAEEEKEEAEEALKEKEKPKEEEWEKPKDAAGLECKPRPLHKTCSLFMRNIAPNISRAEIISLCKRYPGFMRVALSEPQPERRFFRRGWVTFDRSVNIKEICWNLQNIRLRECELSPGVNRDLTRRVRNINGITQHKQIVRNDIKLAAKLIHTLDDRTQLWASEPGTPPLPTSLPSQNPILKNITDYLIEEVSAEEEELLGSSGGAPPEEPPKEGNPAEINVERDEKLIKVLDKLLLYLRIVHSLDYYNTCEYPNEDEMPNRCGIIHVRGPMPPNRISHGEVLEWQKTFEEKLTPLLSVRESLSEEEAQKMGRKDPEQEVEKFVTSNTQELGKDKWLCPLSGKKFKGPEFVRKHIFNKHAEKIEEVKKEVAFFNNFLTDAKRPALPEIKPAQPPGPAQILPPGLTPGLPYPHQTPQGLMPYGQPRPPILGYGAGAVRPAVPTGGPPYPHAPYGAGRGNYDAFRGQGGYPGKPRNRMVRGDPRAIVEYRDLDAPDDVDFF
- 3xMBT/D355N UNC Heavy (3×MBT domain of L3MBTL1): 2.15 log base 2
- 3xMBT/D355N UNC Light (3×MBT domain of L3MBTL1): 2.41 log base 2

- Relative to UNC0638 UNC Heavy (G9a and GLP): 0.16 log base 2
- Relative to UNC0638 UNC Light (G9a and GLP): −0.02 log base 2
- Relative to UNC0638 Average (G9a and GLP): 0.07 log base 2
B4: RPRD1A (protein, UniProt Q96P16 2-312, looked up)
Regulation of nuclear …: SAFSEAALEKKLSELSNSQQSVQTLSLWLIHHRKHSRPIVTVWERELRKAKPNRKLTFLYLANDVIQNSKRKGPEFTKDFAPVIVEAFKHVSSETDESCKKHLGRVLSIWEERSVYENDVLEQLKQALYGDKKPRKRTYEQIKVDENENCSSLGSPSEPPQTLDLVRALQDLENAASGDAAVHQRIASLPVEVQEVSLLDKITDKESGERLSKMVEDACMLLADYNGRLAAEIDDRKQLTRMLADFLRCQKEALAEKEHKLEEYKRKLARVSLVRKELRSRIQSLPDLSRLPNVTGSHMHLPFAGDIYSED
- 3xMBT/D355N UNC Heavy (3×MBT domain of L3MBTL1): 2.16 log base 2
- 3xMBT/D355N UNC Light (3×MBT domain of L3MBTL1): 1.62 log base 2

The next lines start with the molecule.

B3: THYN1 (protein, UniProt Q9P016 1-225, looked up)
Thymocyte nuclear protein 1: MSRPRKRLAGTSGSDKGLSGKRTKTENSGEALAKVEDSNPQKTSATKNCLKNLSSHWLMKSEPESRLEKGVDVKFSIEDLKAQPKQTTCWDGVRNYQARNFLRAMKLGEEAFFYHSNCKEPGIAGLMKIVKEAYPDHTQFEKNNPHYDPSSKEDNPKWSMVDVQFVRMMKRFIPLAELKSYHQAHKATGGPLKNMVLFTRQRLSIQPLTQEEFDFVLSLEEKEPS
- Relative to UNC0638 UNC Heavy (G9a and GLP): −0.01 log base 2
- Relative to UNC0638 UNC Light (G9a and GLP): 0.18 log base 2
- Relative to UNC0638 Average (G9a and GLP): 0.09 log base 2
- 3xMBT/D355N UNC Heavy (3×MBT domain of L3MBTL1): 2.42 log base 2
- 3xMBT/D355N UNC Light (3×MBT domain of L3MBTL1): 2.85 log base 2

B5: CGGBP1 (protein, UniProt Q9UFW8 1-167, looked up)
CGG triplet repeat-binding …: MERFVVTAPPARNRSKTALYVTPLDRVTEFGGELHEDGGKLFCTSCNVVLNHVRKSAISDHLKSKTHTKRKAEFEEQNVRKKQRPLTASLQCNSTAQTEKVSVIQDFVKMCLEANIPLEKADHPAVRAFLSRHVKNGGSIPKSDQLRRAYLPDGYENENQLLNSQDC
- Relative to UNC0638 UNC Heavy (G9a and GLP): 0.05 log base 2
- Relative to UNC0638 UNC Light (G9a and GLP): 0.12 log base 2
- Relative to UNC0638 Average (G9a and GLP): 0.09 log base 2
- 3xMBT/D355N UNC Heavy (3×MBT domain of L3MBTL1): 2.44 log base 2
- 3xMBT/D355N UNC Light (3×MBT domain of L3MBTL1): 2.49 log base 2

B6: MRE11A (protein, UniProt P49959 2-708, looked up)
Double-strand break repair …: STADALDDENTFKILVATDIHLGFMEKDAVRGNDTFVTLDEILRLAQENEVDFILLGGDLFHENKPSRKTLHTCLELLRKYCMGDRPVQFEILSDQSVNFGFSKFPWVNYQDGNLNISIPVFSIHGNHDDPTGADALCALDILSCAGFVNHFGRSMSVEKIDISPVLLQKGSTKIALYGLGSIPDERLYRMFVNKKVTMLRPKEDENSWFNLFVIHQNRSKHGSTNFIPEQFLDDFIDLVIWGHEHECKIAPTKNEQQLFYISQPGSSVVTSLSPGEAVKKHVGLLRIKGRKMNMHKIPLHTVRQFFMEDIVLANHPDIFNPDNPKVTQAIQSFCLEKIEEMLENAERERLGNSHQPEKPLVRLRVDYSGGFEPFSVLRFSQKFVDRVANPKDIIHFFRHREQKEKTGEEINFGKLITKPSEGTTLRVEDLVKQYFQTAEKNVQLSLLTERGMGEAVQEFVDKEEKDAIEELVKYQLEKTQRFLKERHIDALEDKIDEEVRRFRETRQKNTNEEDDEVREAMTRARALRSQSEESASAFSADDLMSIDLAEQMANDSDDSISAATNKGRGRGRGRRGGRGQNSASRGGSQRGRADTGLETSTRSRNSKTAVSASRNMSIIDAFKSTRQQPSRNVTTKNYSEVIEVDESDVEEDIFPTTSKTDQRWSSTSSSKIMSQSQVSKGVDFESSEDDDDDPFMNTSSLRRNRR
- Relative to UNC0638 UNC Heavy (G9a and GLP): 0.07 log base 2
- Relative to UNC0638 UNC Light (G9a and GLP): 0.07 log base 2
- Relative to UNC0638 Average (G9a and GLP): 0.07 log base 2
- 3xMBT/D355N UNC Heavy (3×MBT domain of L3MBTL1): 1.35 log base 2
- 3xMBT/D355N UNC Light (3×MBT domain of L3MBTL1): 2.06 log base 2
